# Laboratory results: the DeepSol protein solubility set
# Experiment: soluble on expression in E. coli; label from the status in PepcDB or PDB records
row,Sequence,soluble on expression in E. coli
1,MAHHHHHHMTFCGFGCVSTSEVGIIENCGKFDRTADPGCFCIVPCVESVRGVVSLKVAISTVRVETKTRDNAVVNIETRLHYKVIAECAEDAFYRFSNPSEQIASFAASVVRGEVPKYTLDELFLMSDEIKKVVSAELTEKLRGFGFSLESTLLTRIEPSASVKTAISQTQINAYRRTAAEHESELNKILAVKAAEADYEEKRLSGVGLAQERQAIMKGLKSSIESFVNAVPSMRAKDVMNLLLLNQYFDAMKEVGSGKSNKLILMPNTCGAAPNFMADLVAAQAGAARMM,not soluble
2,MAHHHHHHMTLGPTTRVTVNVTGTVTVPLHLNALESLDDAPLQEEIMREAVRLSLAEQLGGFDNFTVTSARKGGNHVCEARLDVGDLCSIIADVKNAYEHGERRLRELQQLITAIREQLKESGREGGSEDEDITVPGIVKVVSDMVEDALRGPGESSLSAAIREVSNDKSWLEEVPVGDRSGGAASKSDEDSPSGVGYTRLPDSGEDSNGSERQLE,soluble
3,MAHHHHHHMTNDTEQEQSPSAELAAAAPEPQPSQPQEFYSLRGESHNAVDQEKYGRARTHIAGLGHVSAKDVFKHYRRSWLTPFFGSNEPEPTLQQEGTQHPCQIFSREVHQCLEDHHNSFAFCQTRVAAFQQCLREFSI,not soluble
4,MAHHHHHHMTQQWFPLMAVTPDYLHCITEERFRTNVYEPEADTFLLLEALDKDAHLLRALQPRRCVEIGCGSGTVISHLMLLLLGATEGGNLGSGSAEKSTAEFHAVDVNPVALEATSITWHNTQKRIIGGDTILPLHLHRGDLFSPFEHEASDITEYTKEEKEEFTFDVILFNPPYVPTTMEELQSAEAGKDLITAAWCGGPRGRVVVDRFISKLPSFLSSRGVCYIVAIRENDVEELMEVIRGTFPNDRCYPVNVTVTAERYTGEHLRVIRVS,not soluble
5,MAHHHHHHMTVARDHDIDDHDTSFTSFGGERPPFERIPVPSMASKEYTENLPAFDSDRPMPPPRSVFERFSRVMQLQFGQDPDMPLLGSRAERKYRSWLDYVTSPPSPLLPRNYVDAYTRPNPCPEEYWWASWRWPRIKYVNAKVPPPVDGKYNDYYHYLAYKNWMERERDVYVAHANLVNEMAMRCLVKEGQYNAAKNCRHLYHKGFAMSRMEELNQTLLYMALTGNAAIRETPYPENFVEEKRKIYDDWLFRTRMKKPGDVA,not soluble
6,MAHHHHHHMTYYTVEEITDRRINENDGAIEYAVKWEGVAGELTWEKRHQLTENCAETVQAVDQRCMDATDEELERWRDGKWKRGAKRAHDAPPLVGTTTERRKRSRSVSPAAGEDLEQVEVLNGLLLRPPCGAQNAEEEGTILMLGEVVLAEEASAILNGTGSYRKKCRTATVSTAVAFHTAPALDIEKRWRGIHGQSLLHSIEVAQSITPFHPHFRLHGCDPATRCAMALEVERSSHLRIISIAPPLMTHSGAVFGLPVALDPLVGEKDVEQLRQSVQLESPLFGSAAQELVKPHVEQMVVRYIIPEVTPATDDDTATPTTELFPVHGRIASMPLSVFRVVFPQLLIDYLLTNSVVLR,not soluble
7,MAHHHHHHMVALEREYILGSFCELRIITSLSSTQLSKVTLRKPVEDEDTSTAERAEVFGTELIPGVPVHLPPGRSLSIFTSTGCTLLLVAAPTVLQRCYATSLGATWVRSLLDFHSHLERARVEARGRDDVGPRVLFVSDRHHCGASTYVRWLSNFAVRLGYHPLLLDGVLDTPAFAFPGSVALFHAQHCMDIEEEMNLTPGLYAQVGQSRVANPRLYQHWVQQLLPSGMEKMARSERCRVGGLFFDFGVVEPHAVEQAEAAAAAAVPSVDPTASASSAPAALGSDKSHTNPLDTLLDTIVAADIDHVCVVGSSWLRWKLVQRAWERFGGEGSMSIVQAMLDPRWNVPPEVDCGGGQHFKIFLLDSVELVRSVPVPLWNRQRWLQYFFGTPTSPVKPTLITLEASQVRVATVGAAAMDAMSTLLPMMDSEDVDRQKADVAAVSFITLQDVALKDRIVAISTATEYERSPDGELHRLPFSVFERRIRQSTVLGFALVESVTPERLTLLVSGCPLDKELGLCFLLTEEVLKS,not soluble
8,MAHHHHHHMVFSIPSYLCLGDRPKKVVDERLHGVNFLTSRPKTGHYPDALFDKEFRYVYNGDRYPDPETMARREQMENRKRYITATGFISVFRPKKGEGLGSNYGLLQQEPYIHMPDHPQTRGPQPFPKVKPRQIYTSPSKAGSYGTPGLAITDIGNEYIATIYDQERINAKKERDVWRQRMPPVPFKPVGRRGYTFDEGPATGVSMCYIMTCPFREKRVQPVMKHFIIDKMWLPAGYIPDRPPPVEYWEDPYNGFDPRVDPKSRLKKSEDSIFRTGFRGDNFFYTRSIVFRRL,not soluble
9,MAHHHHHHMVQLTINNARGVTLCRVSLPANATVQQLLLQLTVAKPELRQAQAIRNDVRHVTHRLTPASTTTTTTTSVVSSNAQTLLQAGLVGQGATAETLVVLMAADAPAAASSAAAAAPSPTKAVAAQILDLFGCASASPSAGVRSQASVVPSTMDERQLELQRRIYAQIQQQQIDENLANALEYTPEAFAKVTMLYVPCTINQVLVKAFVDSGAQNSIMNKRTAERCGLMRLVDVRMRGVAVGVGRQEICGRIHMTPVNLAGMYIPFAFYVIEDQAMDLIIGLDQLKRHQMMIDLKHNCLTIDNINVPFLPENDLPALAALGDDENAMHAPRHQDPATTATTASNPAAPVLSEGERQARIEGFMTVSGITDPTQAAELLEAADWNPNVAAALLFDT,soluble
10,MAHHHHHHMVTVPKLQAMREAGEKIAMLTSYDASFAALLDRANVDVQLIGDSLGNVLQGQATTLPVTLDDIAYHTACVARAQPRGLVVADLPFGTYGTPADAFASAVKLMRAGAQMVKLEGGEWLAETVRFLVERAVPVCAHVGLTPQSVHAFGGFKVQGKTEAGAAQLLRDARAVEEAGAQLIVLEAVPTLVAAEVTRELSIPTIGIGAGAECSGQVLVLHDMLGVFPGKRPRFVKDFMQGQPSIFAAVEAYVRAVKDGSFPGPEHSF,soluble
11,MAHHHHHHMWQTVVRRYRLQPTSLAAFLESNCMVAKPPTAALHSDSNLVVAETNSLSIFENLAAEESLIRGLSLDTKQRLLLFYVNRPCVVVGRNQNIFQEVSLRRAAADGVCVARRASGGGAVFHDEGNLCFSFITHRTRYAPEKTIQLVRLGLCASYAIDPARLTTTGRHDLFLDGRKITGSAMRVQRDIAYHHCTLLVDTPHASVGRYLRPEGDYVAFKTSSVGSVRSPVTSLAESGCIADGPGAVAALKGNMADFFLAEGDRVLNAATPWELDAVELRQRFTTARHRCANAPLFALDVVGAVAADMPFIEREGRQPARGDAATLGEAVHKAASKEWAYAMPTFTSTVFLSDSELRRRLKTLSVRQHVALLCSLAEEELLAVLQRCVLEGSEGPEAVAGTEAGLHLVTTVEHRLVTSVVVRRVAPTTATASAVAPSSASSGGWVQRYLSALLVGHPCDAAIEGLECVGDTTAVVQGLVHEAGSLCPDLPDAVGDAALLMVARVLLDVWRDKNVFDIAT,not soluble
12,MAHHHHHHMWRLRSPGPCAGHVARPAAFTACRVVVGSSGATSADAASFRTTSAGAALVVAHRRKSYHFFMNLDDPDATRRRIEEDLDRLASDEKKDTTAYLHSLLNLALSHYQRGDFISARDMADYTHQKALVHNSKSSLIYFTATTCAHCAEALAKEYEAHLQRKDEQSHVSATLTPEPSVVFSARRAIKKLRADAERYRGIAHRVYHRPDMAFMRGSGGGGSGRWRSSARHAEGRDTRHTWADDSSNNGVDEDYIPHMYGPRWQDRRKRPEHAEMKHYYKHQCGTSPSSRGKTQWNVPK,not soluble
13,MAHHHHHHMYEVYYLNEHDEFEKKKKKNEEIQSSLILKNHAISSEKKSKLVKHNIYEGGYTIWECTWDMLKFFHKEGFDFNNKQVLELGCGHGLVGIKVLLDNGNVVFQELNKEVINDVLLPNIKKNLKMKLKKKKLKENKHYMKINNDKITCYVINKPWHKLNSKLQKKKLNCFDFILGNEILYRKENYYHILKILKKNLKKGGKAYFGSKSYYFGFEDGTGSNSFVTYVNNNEHFNFVARIIQTTTGKSVYSKDIIEVTFSPNND,not soluble
14,MAHHHHHHMYYADVDYEVPSRVVQLTDATFDTIVMDPTKDVFVLYCVTWSRHCRSAVKLWADLSISQFKRPTADTFVAALIDAEAFPETAKRMGVKSYPTMLFYTRLEKATPLEYNGQGLLPLLDSFVFQNS,not soluble
15,MAHHHHHHSLDASTLFKKVKVKRVLGSLEQQIDDITTDSRTAREGSIFVASVGYTVDSHKFCQNVADQGCKLVVVNKEQSLPANVTQVVVPDTLRVASILAHTLYDYPSHQLVTFGVTGTNGKTSIATMIHLIQRKLQKNSAYLGTNGFQINETKTKGANTTPETVSLTKKIKEAVDAGAESMTLEVSSHGLVLGRLRGVEFDVAIFSNLTQDHLDFHGTMEAYGHAKSLLFSQLGEDLSKEKYVVLNNDDSFSEYLRTVTPYEVFSYGIDEEAQFMAKNIQESLQGVSFDFVTPFGTYPVKSPYVGKFNISNIMAAMIAVWSKGTSLETIIKAVENLEPVEGRLEVLDPSLPIDLIIDYAHTADGMNKLIDAVQPFVKQKLIFLVGMAGERDLTKTPEMGRVACRADYVIFTPDNPANDDPKMLKAELAKGATHQNYIEFDDRAEGIKHAIDIAEPGDTVVLASKGREPYQIMPGHIKVPHRDDLIGLEAAYKKFGGGPVDQEG,soluble
16,MAHHHHHHSLDSFIMRLLNKPVPGGVAVVDLGEEGPPPRAFYQGKPVLVVREEGRRWIAVVGIPLSTKPGPQKLEVRAATGNHEERFSVGSKHYREQRITLKNKRQVNPLPEDLKRIERELAEQTAAYRRFSPGLPSNLMLDKPVDGPLSSPFGLRRFFNGEERNPHSGLDFAVPAGTPIKAPAAGKVILIGDYFFNGKTVFVDHGQGFISMFCHLSKIDVKLGQQVPRGGVLGKVGATGRATGPHMHWNVSLNDARVDPAIFIGAFQPEG,soluble
17,MAHHHHHHSLDSLGAINKIQDFLQKQEYKTLEYNLTTTEVVMENVTAFWEEGFGELFEKAKQNNNNRKTSNGDDSLFFSNFSLLGTPVLKDINFKIERGQLLAVAGSTGAGKTSLLMMIMGELEPSEGKIKHSGRISFCSQFSWIMPGTIKENIIFGVSYDEYRYRSVIKACQLEEDISKFAEKDNIVLGEGGITLSGGQRARISLARAVYKDADLYLLDSPFGYLDVLTEKEIFESCVCKLMANKTRILVTSKMEHLKKADKILILHEGSSYFYGTFSELQNLQPDFSSKLMGCDSFDQFSAERRNSILTETLHRLSLEGDAPVSWTETKKQSFKQTGEFGEKRKNSILNPINSIRKEG,soluble
18,MAHHHHHHSLEIRAFSKYRKRALSLVRGKVLEIGVGTGKNLPYYPKDVEVIGIDFSRNMLKKAEERRRKLRLENVTLLYMDAQDLEFEDNTFDTIVSTFVFCTVPDPIKGLKEAYRVLKPGGRAIFLEHMKSESKLLNVPLYLMEPFIRTLLGTSLLRETQRNIERAGFKIEKVENLFYDIVRLIIATKDEG,soluble
19,MAHHHHHHSLIKTEFKGNNIPYEYAAGADVSDSINGNPIKSFPFEVIELPEGTKYLAWSLIDYDAIPVCGFAWIHWSVANVSVSGNSISIKADLSRTKGDYVQGKNSFTSGLLAEDFSEIENHYVGPTPPDQDHQYELTVYALDHSLNLKNGFYLNEFLKEVNQHKIDQTSINLIGRKEG,not soluble
20,MAHHHHHHSLKNTLGRQFSRATETYEKWAVPQRKSAKILVEFVKPSGLVLDLGCGTGFISEFVNDCEVVGLDISEGMAKAYREKFRKVVIGNAENLPFKDRSFDFVLSNFSLHWSDWRKSIREALRVCKNFVGVAIPVYGSVSFSEFPFPKAEEILEEFKPQEFKIINLEIPFRGMELIKFFHYTGTANFTGKKNFKTKRELIKLSKDLEKEYFKVLFLKLKSRAFEG,soluble
